Results: publication PMC8563728 (Nature Communications, 2021)

Target: SARS-CoV-2 S1 (SARS-CoV-2, wild type (Wuhan-Hu-1), UniProt P0DTC2)
Assay: SPR
Settings: both partners purified

B1: 58G6 (antibody, V domains shown)
VH: QMQLVQSGPEVKKPGTSVKVSCKASGFTFSSSAVQWVRQARGQHLEWIGWIVVGSGNTNYAQKFQERVTLTRDMSTRTAYMELSSLRSEDTAVYYCAAPNCNSTTCHDGFDIWGQGTVVTVSS
VL: EIVLTQSPGTLSLSPGERATLSCRASQSVRSSYLGWYQQKPGQAPRLLIYGASSRATGIPDRFSGSGSGTDFTLTISRLESEDFAVYYCQQYDNSPWTFGQGTKVEIK
notes: also called 58G6 mAb; copies: 2 + 2
- Kd: 1.08 nM
